What was measured:
Assay in all cases: competition ELISA, antibody preincubated with target, AMH-coated plate
[1] = target: T1, AMH3647-8 (Myotis sequence) (Myotis)
T1 peptide: GLIFHQDWDWPA

[2] = target: T2, AMH3647-12 (Gerbil sequence) (Gerbil)
T2 peptide: GLIFLEDGLWPP

[3] = target: T3, AMH3647-22 (Mouse sequence) (Mouse)
T3 peptide: GLIFLEDELWPP

[4] = target: T4, AMH3647-25 (Horse sequence) (Horse)
T4 peptide: GLIFHQDWDWPP

[5] = target: T5, AMH3647-23 (Cattle sequence) (Cattle)
T5 peptide: ALIFQQAWDWPL

[6] = target: T6, AMH3647-9 (Horseshoe bat sequence) (Horseshoe bat)
T6 peptide: GLIFHQDWDWSP

[7] = target: T7, AMH3647-13 (Rat sequence) (Rat)
T7 peptide: GLIFLEDGVWPP

[8] = target: T8, AMH3647-4 (Lemur sequence) (Lemur)
T8 peptide: GLIFHEDWDWLP

[9] = target: T9, AMH3647-24 (Owl sequence) (Owl)
T9 peptide: GLIFGEDVDWPP

[10] = target: T10, AMH3647-17 (Chimpanzee sequence) (Chimpanzee)
T10 peptide: GLIFPEDLDWPP

[11] = target: T11, AMH3647-19 (Dog sequence) (Dog)
T11 peptide: GLLFQPDWDWPP

[12] = target: T12, AMH truncated antigen 36-47 (human)
T12 construct: also called human AMH36-47; AMH3647-27 (Human)
T12 peptide: GLIFREDLDWPP

[13] = target: T13, AMH3647-7 (Cat sequence) (Cat)
T13 peptide: GLIFHPDWDWQP

[14] = target: T14, AMH3647-15 (Guinea pig sequence) (Guinea pig)
T14 peptide: GLIFPEDQVWPP

[15] = target: T15, AMH3647-3 (Hamster sequence) (Hamster)
T15 peptide: GLIFFEDGIWPL

[16] = target: T16, AMH3647-10 (Pig sequence) (Pig)
T16 peptide: GLIFHWDWNWPP

[17] = target: T17, human AMH36-47 short peptide, mutation site 43 (human)
T17 peptide: GLIFREDADWPP
Experimental: (§1) 1. AMH antigen was diluted with carbonic acid buffer (20 mmol/L CB, pH 9.6) and then coated on a polyvinyl chloride plate. In the pretreatment, the antibody purified by the protein A column and the synthesized short peptides with different human AMH36-47 amino acid mutations were subjected to proportion incubation (100 ng/ml antibody: 50 ug/ml truncated antigen) for 30 minutes, that were test samples; the control sample was (100 ng/ml antibody: PBS) and incubated for 30 minutes, and then the test samples after incubation and the control sample were added to AMH antigen plate and incubated for 30 minutes, the plate was washed for 5 times, added with GAM-HRP (1/5000 dilution) and incubated for 30 minutes, the plate was washed for 5 times, and the substrate was added and incubated for 15 minutes. The values under wavelength of 450/620 were read by microplate reader, and the detected OD values were finally calculated and analyzed. The calculation formula was: (control sample OD value−test sample OD value)/control sample OD value, and the criterion for determination was as follows: a value lower than 90% indicated the corresponding amino acid was a key amino acid, and the mutation has a great impact on the reaction of antibody.

[18] = target: T18, human AMH36-47 short peptide, mutation site 38 (human)
T18 peptide: GLAFREDLDWPP
Experimental: as §1

[19] = target: T19, human AMH36-47 short peptide, mutation site 40 (human)
T19 peptide: GLIFAEDLDWPP
Experimental: as §1

[20] = target: T20, human AMH36-47 short peptide, mutation site 42 (human)
T20 peptide: GLIFREALDWPP
Experimental: as §1

[21] = target: T21, human AMH36-47 short peptide, mutation site 46 (human)
T21 peptide: GLIFREDLDWAP
Experimental: as §1

[22] = target: T22, human AMH36-47 short peptide, mutation site 44 (human)
T22 peptide: GLIFREDLAWPP
Experimental: as §1

[23] = target: T23, human AMH36-47 short peptide, mutation site 47 (human)
T23 peptide: GLIFREDLDWPA
Experimental: as §1

[24] = target: T24, human AMH36-47 short peptide, mutation site 36 (human)
T24 peptide: ALIFREDLDWPP
Experimental: as §1

[25] = target: T25, human AMH36-47 short peptide, mutation site 45 (human)
T25 peptide: GLIFREDLDAPP
Experimental: as §1

[26] = target: T26, human AMH36-47 short peptide, mutation site 41 (human)
T26 peptide: GLIFRADLDWPP
Experimental: as §1

[27] = target: T27, human AMH36-47 short peptide, mutation site 39 (human)
T27 peptide: GLIAREDLDWPP
Experimental: as §1

[28] = target: T28, human AMH36-47 short peptide, mutation site 37 (human)
T28 peptide: GAIFREDLDWPP
Experimental: as §1

B1: monoclonal antibody C9F2-2 (antibody, V domains shown)
VH: EVQLVESGGGLVKPGGSLKLSCAASGFAFSTYDMSWVRQTPEKRLEWVAYISPGGGATYYPDTVKGRFTISRDNAKNTLYLQMTSLKSEDTAMYYCAGRRDYYGMDYWGQGTSVTVSS
VL: DVVMTQTPLSLPVSLGDQASISCRSSQSLVHSNGNTYLHWYLQKPGQSPKLLIYKVSNRFSGVPDRFSGSGSGTDFTLKISRVEAEDLGVYFCSQSTHVPWTFGGGTKLEIK
notes: Mouse hybridoma antibody purified from ascites; the tie is indirect; also called hybridoma CCTCC NO: C2018183
- percent inhibition [1]: 8%
- percent inhibition [2]: 5%
- percent inhibition [3]: -9%
- percent inhibition [4]: -2%
- percent inhibition [5]: -8%
- percent inhibition [6]: -3%
- percent inhibition [7]: 11%
- percent inhibition [8]: 22%
- percent inhibition [9]: 19%
- percent inhibition [10]: 9%
- percent inhibition [11]: -1%
- percent inhibition [12]: 100%
- percent inhibition [13]: 6%
- percent inhibition [14]: 2%
- percent inhibition [15]: 8%
- percent inhibition [16]: 8%
- percent inhibition [17]: 94%
- percent inhibition [18]: 96%
- percent inhibition [19]: 88%
- percent inhibition [20]: 98%
- percent inhibition [21]: 99%
- percent inhibition [22]: 64%
- percent inhibition [23]: 99%
- percent inhibition [24]: 100%
- percent inhibition [25]: 100%
- percent inhibition [26]: 7%
- percent inhibition [27]: 9%
- percent inhibition [28]: 97%

Reference: patent US20220146515A1 (XIAMEN INNODX BIOTECH, published 2022)
